Data on 33 sequences can be found in the supplement of paper PMC9170038.

Series [1] relates to K4 kissing-loop RNA reporter. As to the kind of experiment: apparent KD of K4 kissing-loop reporter; higher = weaker reporter binding. Particulars: Eterna round: R107. Here is the method:
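RNA-MaP round R107: designed RNA switches with theophylline, tryptophan, arginine or FMN aptamers are transcribed on-chip within common flanks. They are titrated with a labelled K4 kissing-loop RNA reporter in RNA-MaP buffer (100 mM Tris pH 7.5, 80 mM KCl, 4 mM MgCl2), without ligand or with the indicated ligand. Median apparent KD per design.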

A further series has as its system MS2 coat protein. As to the kind of experiment: apparent KD of MS2 coat protein; designed switch direction (-1 OFF switch, 1 ON switch): -1; higher = weaker reporter binding. A digest of the protocol: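 Normalised cluster fluorescence was curve-fitted, and each design's median over clusters is its apparent KD. Before this, SNAP-549-labelled MS2 coat protein was titrated from 0.7 or 1.5 nM, doubling to 3 µM, over RNA switches transcribed on Illumina chips by stalled E. coli RNA polymerase. Titrations had no input, 200 uM small-molecule ligand, or an oligonucleotide input, and steps lasted 0.8–1.5 h (lowest) to 10–20 min (highest).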

[2] abbreviates: input ligand: theophylline 20 uM.
The mark [3] stands for this setting: input ligand: tryptophan 2.4 mM.
[4] abbreviates: Eterna round: R95, input ligand: microRNA oligo, concentration not stated.
Setting [5] is: input ligand: microRNA oligo, concentration not stated.
Where [6] appears, read: Eterna round: R95, input ligand: FMN 200 uM.
[7] abbreviates: Eterna round: R95, input ligand: none.
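Wherever apparent KD of K4 kissing-loop reporter is given: bound reporter read as fluorescence of individual clusters on recovered sequencing chips by microscopy, with normalized cluster intensities fitted with a binding model.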

Regarding “AAAAUAAACCAGUGAUGUUGGUGUCUAGAUACCAGCGACGAAAGUCGCCCUUGGCAGCUAUGGACGUACAAAAUAAGUACGUCCU [MatMod 6 - Jieux - Same State - Theophylline A]”, the “apparent KD of K4 kissing-loop reporter” value in series [1] (input ligand: FMN 200 uM) was found to be 647 nM; in series [1] (input ligand: arginine 13.2 mM), 459 nM; in series [1] (input ligand: none), 617 nM; in series [1] (setting [2]), 679 nM; in series [1] (setting [3]), 612 nM.
For “AAACAUUGGUCUGAUACCAGCUGAUCGGAAACGAUCAUGCUGGAGUGAUGUUCCAGGAAAAGCCCUUGGCAGCAGACCGAUGAAA [MAT - Same State Theophlline B - Mod of Eli - D28]”, the “apparent KD of K4 kissing-loop reporter” value in series [1] (input ligand: FMN 200 uM) amounted to 94.7 nM; in series [1] (input ligand: arginine 13.2 mM), 103 nM; in series [1] (input ligand: none) it was 75.6 nM; in series [1] (setting [2]) it was 184 nM; in series [1] (setting [3]), 137 nM.
For “AAACGCUUGAAUAACAAGCGAAUAAAUUCGCGAGGACCGGUACGGCCGCCACUCGCUAACUGCGAGUGAUGUUCGAUAAUAAAAU [Mat - Mod of OpenEnded 3 - D14]”, in that order: 115 nM, 91.8 nM, 170 nM, 176 nM and 95 nM.
The matching figures for “AAACGUUGGUCUGAUACCAGCUGAUCGGAAACGAUCUUGCUGGAGUGAUGUUCCAGGAAAAGCCCUUGGCAGCAGACCGACGAAA [MAT - Same State Theophlline B - Mod of Eli - D25]”: 901 nM, 714 nM, 1510 nM, 1260 nM and 894 nM.
The matching figures for “AAAGGAGUGGAAGGAUAUCCUGGUGUGGGUGGUGUUAGUGAUGUUGGUGGUGCAGUGAUGUUGCGCGGAGAAGGUCCGGUAUUGG [BDazzled - #2 - Exc. FMN B]”: 485 nM, 462 nM, 437 nM, 517 nM and 410 nM.
With “AAAUAAAACUAUGAUACCAGUCAUCACAGAGUGAUGUUUUGUGGCAUUUUAAACUUGGCAGACCCUUGGCAGCAUGAUAUAGGAG [theeternabot_sameState_KL_Theo_B_8]”, the “apparent KD of K4 kissing-loop reporter” value is 486 nM in series [1] (input ligand: FMN 200 uM); 207 nM in series [1] (input ligand: arginine 13.2 mM); 318 nM in series [1] (input ligand: none); 358 nM in series [1] (setting [2]); 261 nM in series [1] (setting [3]).
For “AAAUAAAGCAGUCACCCAGUGAUGUUGGAAGGAGCGUGCGAAAGCACAGGUAGGUCGCCGAUAAAGGACAAAGUCCGUGGCUGCA [#SwitchBubble 29 #K4Early]”, in that order: 275 nM, 350 nM, 253 nM, 279 nM and 190 nM.
For “AAAUUUAAUAUAUUUAAUUAAUUAUGUGAUACCAGACAUUUAUAAGUCCCUUGGCAGCACUUUGCAGUGAUGUUGCUUAUAAUAA [JR_SSTheophyA_Sub014]”, in that order: 88.8 nM, 97.1 nM, 91.4 nM, 192 nM and 83.8 nM.
For “AAAUUUAUAUUAGAUACCAGCAAAUUGAAAGUUUAUUAUGACAAGAGUGAUGUUCUUGUAUGCCCUUGGCAGCUGGUAUGGGUUU [KL-XTheo-B26]”, the “apparent KD of K4 kissing-loop reporter” value turned out to be 112 nM in series [1] (input ligand: FMN 200 uM); 106 nM in series [1] (input ligand: arginine 13.2 mM); 120 nM in series [1] (input ligand: none); 111 nM in series [1] (setting [2]); 108 nM in series [1] (setting [3]).
For “AAAUUUUAAAGUGAUACCAGACAUCUCUAUUACAUUAAUAUAGCUAAGUGAUGUUUAGCAGUCCCUUGGCAGCACAAUUUAAUUA [JR_SSTheophyB_Sub012]”, in that order: 336 nM, 316 nM, 334 nM, 474 nM and 266 nM.
The matching figures for “AAAUUUUCGAGUGAUGUUCGAAUAAUUUCAGAGGAUAUGCUUAAAAGCAGAAGGCUGUAUUACUAUUUGUUAUUAAAUUUUAUAA [JR_ExcFMNA_Sub001]”: 106 nM, 110 nM, 96.7 nM, 105 nM and 86.2 nM.
Turning to “AACAGCAAUGCGGCCGCCACUUCGAGUUCAGUGAUGUUGAAAGAAUUAAAUAAAGAUCCCAAGAGGAGGACCGGGCAGUGCUGUU [Default title]”, the “apparent KD of K4 kissing-loop reporter” value was found to be 596 nM in series [1] (input ligand: FMN 200 uM); 448 nM in series [1] (input ligand: arginine 13.2 mM); 530 nM in series [1] (input ligand: none); 621 nM in series [1] (setting [2]); 418 nM in series [1] (setting [3]).
Regarding “UUUUAACAUGAGGAUCACCCAUGUGAGGAUAUCGAAAUUUAUAUUAAUAUUAAUUUAACGAGAAGGCACAUUUU [JMF 31] (puzzle: Exclusion 1)”, the “apparent KD of MS2 coat protein” value in the series with MS2 coat protein (setting [4]) was 88.5 nM.
Same read-out and setting: the result for “UUUUAACAUGAGGAUCACCCAUGUGAGGAUAUCGAAAUUUAUAUUAAUAUUAUUUUUUCGAGAAGGCACAUUUU [JMF 49] (puzzle: Exclusion 1)” reads 148 nM; that for “UUUUAACAUGAGGAUCACCCAUGUGAGGAUAUCGAAAUUUAUAUUAAUAUUUUUAAAUCGAGAAGGCACAUUUU [JMF 68] (puzzle: Exclusion 1)”, 98.9 nM.
As to “UUUUACUCAGGAUAUACAUGAGGAUCACCCAUGUAUAUUGAAGAUAAUACAUGGGAAUGUAGAAGGGAGCUCAU [Omei Ex3 Pseudoloop 18] (Eterna round: R97, puzzle: Exclusion 3)”, the “apparent KD of MS2 coat protein” value is 190 nM in the series on MS2 coat protein (input ligand: FMN 200 uM) and 179 nM with MS2 coat protein (input ligand: none).
For “UUUUCGUCAGGAUAUUCUACUUAUUACAUGAGGAUCACCCAUGUGUAUGUACAAGGGUGUGAAGAAGGGACUUUUU [LRO-Excl5-10-mod A17d by Omei] (Eterna round: R97, puzzle: Exclusion 5)”, in that order: 305 nM and 1070 nM.
For the sequence “UUUUCUUUUGUGAGGAUAUACUUGUUUUUUUUUUUGUAGAAGGCACAUGAGGAUCACCCAUGUUUUCUUUUCUG [JR_BME4_Sub026] (puzzle: Brourd's mod of Exclusion 4)”, the “apparent KD of MS2 coat protein” value in the series on MS2 coat protein (setting [4]) was determined as 20.6 nM.
On to “UUUUGGCAAGCGAGAUCCUACAUGAGGAUCACCCAUGUUGACCAUGGUUUCCAUGGUCAUUUUGCUCGUCUUGUGUG [jl TITIN mod 2] (Eterna round: R97, puzzle: Sensor, turn-off variant 1)”, for which the “apparent KD of MS2 coat protein” value in the series with MS2 coat protein (input ligand: FMN 200 uM) came to 31.8 nM; in the series with MS2 coat protein (input ligand: none), 32.3 nM.
Take “UUUUGUCGUGACAUGGGUGACAUGAGGAUCACCCAUGUUACAAGCUUGUUGCUCGUCUUAUAAUUAACCCAUGUCAU [LRO Sensor-off var1-18 mod of Stov1-13-A1 by Brourd] (Eterna round: R97, puzzle: Sensor, turn-off variant 1)”: the “apparent KD of MS2 coat protein” value was found to be 44.7 nM in the series on MS2 coat protein (input ligand: FMN 200 uM) and 49.1 nM with MS2 coat protein (input ligand: none).
Take “UUUUUAGAUGAAGGAUAUACUUAACAUGAGGAUCACCCAUGUGGUGUUGUGAGUGAGUGAGUUUAGUAGAAGGUCAAUGAUUUU [JMF's solution 66] (Eterna round: R96, puzzle: Exclusion NG 2)”: the “apparent KD of MS2 coat protein” value was 937 nM in the series with MS2 coat protein (input ligand: FMN 200 uM), 246 nM with MS2 coat protein (setting [5]) and 377 nM in the series with MS2 coat protein (input ligand: none).
On to “UUUUUAGUGCUUUUUAAGUACAUGAGGAUCACCCAUGUACUUGUCUGGUGGUCCGGACAAGCUUUUUGCUCGUCUAA [Sensor v3 - turn-off variant 1 - 1] (puzzle: Sensor v3, turn-off variant 1)”, for which the “apparent KD of MS2 coat protein” value came to 48.9 nM with MS2 coat protein (setting [6]), 33 nM in the series with MS2 coat protein (setting [4]) and 59.7 nM in the series on MS2 coat protein (setting [7]).
Turning to “UUUUUAUAACAAGGAUAUACUAAACAUGAGGAUCACCCAUGUAAUAUUAUGAGUGAGAGAGAGAAGUAGAAGGUGUAUUAUUUU [JMF solution 2] (Eterna round: R96, puzzle: Exclusion NG 2)”, the “apparent KD of MS2 coat protein” value in the series on MS2 coat protein (setting [5]) was found to be 82.4 nM.
For “UUUUUAUAUGAAGGAUAUACUUAACAUGAGGAUCACCCAUGUGGUGUUGUGAGUGAGUGAGUUUAGUAGAAGGUCAAGUAUUCU [JMF's solution 40] (Eterna round: R96, puzzle: Exclusion NG 2)”, the “apparent KD of MS2 coat protein” value in the series with MS2 coat protein (input ligand: FMN 200 uM) was 575 nM; in the series on MS2 coat protein (setting [5]), 306 nM; with MS2 coat protein (input ligand: none), 496 nM.
With “UUUUUAUAUGAAGGAUAUACUUAACAUGAGGAUCACCCAUGUGGUGUUGUGAGUGAGUGAGUUUAGUAGAAGGUCAAGUAUUUA [JMF's solution 41] (Eterna round: R96, puzzle: Exclusion NG 2)”, the “apparent KD of MS2 coat protein” value stood at 663 nM with MS2 coat protein (input ligand: FMN 200 uM), 527 nM with MS2 coat protein (setting [5]) and 380 nM with MS2 coat protein (input ligand: none).
For “UUUUUAUAUGAAGGAUAUACUUAACAUGAGGAUCACCCAUGUGGUGUUGUGAGUGAGUGAGUUUAGUAGAAGGUCAAUUAGUAU [JMF's solution 101] (Eterna round: R96, puzzle: Exclusion NG 2)”, in that order: 1110 nM, 253 nM and 295 nM.
The matching figures for “UUUUUAUAUGAAGGAUAUACUUAACAUGAGGAUCACCCAUGUGGUGUUGUGAGUGAGUGAGUUUAGUAGAAGGUCAAUUAUUUU [JMF's solution 6] (Eterna round: R96, puzzle: Exclusion NG 2)”: 915 nM, 246 nM and 261 nM.
On to “UUUUUCAAGCCAGAUCCUCACAUGAGGAUCACCCAUGUGCUCGUCUGUUUUCGCACUAUCACGUUUGUGAUAGUGCU [Level Boss var2-11] (puzzle: Sensor v3, turn-off variant 1)”, for which the results for the “apparent KD of MS2 coat protein” value in the series with MS2 coat protein (setting [6]), with MS2 coat protein (setting [4]) and in the series on MS2 coat protein (setting [7]) were 297 nM, 17.7 nM and 307 nM, respectively.
For “UUUUUGGUAGGAUAUACAUGAGGAUCACCCAUGUCCCACCCGUUACCUAUGACCAUAUGUAGAAGGACCAUUUC [Exy#11] (Eterna round: R97, puzzle: Exclusion 3)”, the “apparent KD of MS2 coat protein” value in the series with MS2 coat protein (input ligand: FMN 200 uM) was 24.6 nM; in the series with MS2 coat protein (input ligand: none), 21.3 nM.
Consider “UUUUUGUAUGAAGGAUAUACUUAACAUGAGGAUCACCCAUGUGGUGUUGUGAGUGAGUGAGUUUAGUAGAAGGUCAAUUCUUUU [JMF's solution 88] (Eterna round: R96, puzzle: Exclusion NG 2)”, for which the results for the “apparent KD of MS2 coat protein” value in the series on MS2 coat protein (input ligand: FMN 200 uM), in the series with MS2 coat protein (setting [5]) and with MS2 coat protein (input ligand: none) were 604 nM, 275 nM and 454 nM, respectively.
In the case of “UUUUUGUGAGGAUAUCAGUAGUAAAUAAAUAAAAUUACUACUGAGAAGGCACAUGAGGAUCACCCAUGUUCCUU [salish99_ex3_r3_090] (puzzle: Exclusion 4)”, in the series with MS2 coat protein (setting [4]), the “apparent KD of MS2 coat protein” value came to 14 nM.
Same read-out and setting: the result for “UUUUUGUGAGGAUAUCAGUAGUAGAACAAUAGUACUACUACUGAGAAGGCACAUGAGGAUCACCCAUGUUCUUC [Fiskers Ex 4 Super stable 44 mod 11] (puzzle: Exclusion 4)” reads 27.1 nM.
With “UUUUUUGUUGUGAGGAUAUCGUAUUUUUUUUGUUACGAGAAGGCACAUGAGGAUCACCCAUGUUUUUUGAUGUU [JR_BMOE4_Sub065] (puzzle: Brourd's mod of Exclusion 4)”, the “apparent KD of MS2 coat protein” value with MS2 coat protein (setting [4]) stood at 28.4 nM.
